The values below are quoted from earlier work in paper PMC4487222.

pKd: −log10 of the molar value.

This series concerns the target CheY (Thermotoga maritima) (UniProt Q56312).

Sequence of CheA (Q56310 whole entry): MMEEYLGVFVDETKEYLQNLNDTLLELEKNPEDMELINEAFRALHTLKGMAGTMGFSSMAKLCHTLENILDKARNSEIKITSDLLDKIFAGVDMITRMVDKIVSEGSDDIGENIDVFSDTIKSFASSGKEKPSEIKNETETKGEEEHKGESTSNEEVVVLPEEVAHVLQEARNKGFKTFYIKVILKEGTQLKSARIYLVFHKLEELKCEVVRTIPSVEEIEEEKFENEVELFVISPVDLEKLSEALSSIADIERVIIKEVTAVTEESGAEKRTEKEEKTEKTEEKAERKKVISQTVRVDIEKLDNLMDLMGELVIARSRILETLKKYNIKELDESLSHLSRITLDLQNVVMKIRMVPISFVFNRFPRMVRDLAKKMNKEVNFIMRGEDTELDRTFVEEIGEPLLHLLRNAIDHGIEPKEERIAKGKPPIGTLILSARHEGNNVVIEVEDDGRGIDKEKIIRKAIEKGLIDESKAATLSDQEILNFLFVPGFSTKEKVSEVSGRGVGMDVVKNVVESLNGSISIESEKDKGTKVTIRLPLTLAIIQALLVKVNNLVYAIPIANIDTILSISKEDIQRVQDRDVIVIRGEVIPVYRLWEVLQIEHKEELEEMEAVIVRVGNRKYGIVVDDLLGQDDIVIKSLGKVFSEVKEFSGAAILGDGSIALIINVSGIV
Sequence of CheY (Thermotoga maritima) (Q56312 whole entry): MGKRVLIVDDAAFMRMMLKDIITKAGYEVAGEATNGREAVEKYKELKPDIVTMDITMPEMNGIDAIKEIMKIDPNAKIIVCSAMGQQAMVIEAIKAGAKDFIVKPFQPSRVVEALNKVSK

One may read the pKd as the negative decadic logarithm of the Kd, by convention in mol/L. For the substance CheA (from UniProt Q56310), the negative-log Kd (pKd) is 6.70.
